Laboratory results reported in article PMC6553876 (PLoS Pathogens, 2019).

Target: T1, DEN4-80E (Dengue virus type 4, strain H241 …, UniProt Q58HT7)
T1 construct: Envelope (E) protein of dengue virus serotype 4, strain H241, truncated form: 80% of the N-terminal of the E protein; also called DEN-80E of DENV4; truncated envelope protein of DENV4; source: recombinant E protein, component of the tetravalent dengue subunit vaccine V180 (Merck and Co. Inc.)
Assay: BLI; Octet RED96 epitope binning: first mAb (30 ug/ml) captured on protein A sensor for 600 s, blocking antibody (200 ug/ml) 300 s, DEN4-80E loaded at 30 ug/ml for 300 s, then second mAb (d462, 5H2, d559, d182)
Details: both partners purified

T1 sequence (Q58HT7 whole entry, looked up, the tested form may be a part): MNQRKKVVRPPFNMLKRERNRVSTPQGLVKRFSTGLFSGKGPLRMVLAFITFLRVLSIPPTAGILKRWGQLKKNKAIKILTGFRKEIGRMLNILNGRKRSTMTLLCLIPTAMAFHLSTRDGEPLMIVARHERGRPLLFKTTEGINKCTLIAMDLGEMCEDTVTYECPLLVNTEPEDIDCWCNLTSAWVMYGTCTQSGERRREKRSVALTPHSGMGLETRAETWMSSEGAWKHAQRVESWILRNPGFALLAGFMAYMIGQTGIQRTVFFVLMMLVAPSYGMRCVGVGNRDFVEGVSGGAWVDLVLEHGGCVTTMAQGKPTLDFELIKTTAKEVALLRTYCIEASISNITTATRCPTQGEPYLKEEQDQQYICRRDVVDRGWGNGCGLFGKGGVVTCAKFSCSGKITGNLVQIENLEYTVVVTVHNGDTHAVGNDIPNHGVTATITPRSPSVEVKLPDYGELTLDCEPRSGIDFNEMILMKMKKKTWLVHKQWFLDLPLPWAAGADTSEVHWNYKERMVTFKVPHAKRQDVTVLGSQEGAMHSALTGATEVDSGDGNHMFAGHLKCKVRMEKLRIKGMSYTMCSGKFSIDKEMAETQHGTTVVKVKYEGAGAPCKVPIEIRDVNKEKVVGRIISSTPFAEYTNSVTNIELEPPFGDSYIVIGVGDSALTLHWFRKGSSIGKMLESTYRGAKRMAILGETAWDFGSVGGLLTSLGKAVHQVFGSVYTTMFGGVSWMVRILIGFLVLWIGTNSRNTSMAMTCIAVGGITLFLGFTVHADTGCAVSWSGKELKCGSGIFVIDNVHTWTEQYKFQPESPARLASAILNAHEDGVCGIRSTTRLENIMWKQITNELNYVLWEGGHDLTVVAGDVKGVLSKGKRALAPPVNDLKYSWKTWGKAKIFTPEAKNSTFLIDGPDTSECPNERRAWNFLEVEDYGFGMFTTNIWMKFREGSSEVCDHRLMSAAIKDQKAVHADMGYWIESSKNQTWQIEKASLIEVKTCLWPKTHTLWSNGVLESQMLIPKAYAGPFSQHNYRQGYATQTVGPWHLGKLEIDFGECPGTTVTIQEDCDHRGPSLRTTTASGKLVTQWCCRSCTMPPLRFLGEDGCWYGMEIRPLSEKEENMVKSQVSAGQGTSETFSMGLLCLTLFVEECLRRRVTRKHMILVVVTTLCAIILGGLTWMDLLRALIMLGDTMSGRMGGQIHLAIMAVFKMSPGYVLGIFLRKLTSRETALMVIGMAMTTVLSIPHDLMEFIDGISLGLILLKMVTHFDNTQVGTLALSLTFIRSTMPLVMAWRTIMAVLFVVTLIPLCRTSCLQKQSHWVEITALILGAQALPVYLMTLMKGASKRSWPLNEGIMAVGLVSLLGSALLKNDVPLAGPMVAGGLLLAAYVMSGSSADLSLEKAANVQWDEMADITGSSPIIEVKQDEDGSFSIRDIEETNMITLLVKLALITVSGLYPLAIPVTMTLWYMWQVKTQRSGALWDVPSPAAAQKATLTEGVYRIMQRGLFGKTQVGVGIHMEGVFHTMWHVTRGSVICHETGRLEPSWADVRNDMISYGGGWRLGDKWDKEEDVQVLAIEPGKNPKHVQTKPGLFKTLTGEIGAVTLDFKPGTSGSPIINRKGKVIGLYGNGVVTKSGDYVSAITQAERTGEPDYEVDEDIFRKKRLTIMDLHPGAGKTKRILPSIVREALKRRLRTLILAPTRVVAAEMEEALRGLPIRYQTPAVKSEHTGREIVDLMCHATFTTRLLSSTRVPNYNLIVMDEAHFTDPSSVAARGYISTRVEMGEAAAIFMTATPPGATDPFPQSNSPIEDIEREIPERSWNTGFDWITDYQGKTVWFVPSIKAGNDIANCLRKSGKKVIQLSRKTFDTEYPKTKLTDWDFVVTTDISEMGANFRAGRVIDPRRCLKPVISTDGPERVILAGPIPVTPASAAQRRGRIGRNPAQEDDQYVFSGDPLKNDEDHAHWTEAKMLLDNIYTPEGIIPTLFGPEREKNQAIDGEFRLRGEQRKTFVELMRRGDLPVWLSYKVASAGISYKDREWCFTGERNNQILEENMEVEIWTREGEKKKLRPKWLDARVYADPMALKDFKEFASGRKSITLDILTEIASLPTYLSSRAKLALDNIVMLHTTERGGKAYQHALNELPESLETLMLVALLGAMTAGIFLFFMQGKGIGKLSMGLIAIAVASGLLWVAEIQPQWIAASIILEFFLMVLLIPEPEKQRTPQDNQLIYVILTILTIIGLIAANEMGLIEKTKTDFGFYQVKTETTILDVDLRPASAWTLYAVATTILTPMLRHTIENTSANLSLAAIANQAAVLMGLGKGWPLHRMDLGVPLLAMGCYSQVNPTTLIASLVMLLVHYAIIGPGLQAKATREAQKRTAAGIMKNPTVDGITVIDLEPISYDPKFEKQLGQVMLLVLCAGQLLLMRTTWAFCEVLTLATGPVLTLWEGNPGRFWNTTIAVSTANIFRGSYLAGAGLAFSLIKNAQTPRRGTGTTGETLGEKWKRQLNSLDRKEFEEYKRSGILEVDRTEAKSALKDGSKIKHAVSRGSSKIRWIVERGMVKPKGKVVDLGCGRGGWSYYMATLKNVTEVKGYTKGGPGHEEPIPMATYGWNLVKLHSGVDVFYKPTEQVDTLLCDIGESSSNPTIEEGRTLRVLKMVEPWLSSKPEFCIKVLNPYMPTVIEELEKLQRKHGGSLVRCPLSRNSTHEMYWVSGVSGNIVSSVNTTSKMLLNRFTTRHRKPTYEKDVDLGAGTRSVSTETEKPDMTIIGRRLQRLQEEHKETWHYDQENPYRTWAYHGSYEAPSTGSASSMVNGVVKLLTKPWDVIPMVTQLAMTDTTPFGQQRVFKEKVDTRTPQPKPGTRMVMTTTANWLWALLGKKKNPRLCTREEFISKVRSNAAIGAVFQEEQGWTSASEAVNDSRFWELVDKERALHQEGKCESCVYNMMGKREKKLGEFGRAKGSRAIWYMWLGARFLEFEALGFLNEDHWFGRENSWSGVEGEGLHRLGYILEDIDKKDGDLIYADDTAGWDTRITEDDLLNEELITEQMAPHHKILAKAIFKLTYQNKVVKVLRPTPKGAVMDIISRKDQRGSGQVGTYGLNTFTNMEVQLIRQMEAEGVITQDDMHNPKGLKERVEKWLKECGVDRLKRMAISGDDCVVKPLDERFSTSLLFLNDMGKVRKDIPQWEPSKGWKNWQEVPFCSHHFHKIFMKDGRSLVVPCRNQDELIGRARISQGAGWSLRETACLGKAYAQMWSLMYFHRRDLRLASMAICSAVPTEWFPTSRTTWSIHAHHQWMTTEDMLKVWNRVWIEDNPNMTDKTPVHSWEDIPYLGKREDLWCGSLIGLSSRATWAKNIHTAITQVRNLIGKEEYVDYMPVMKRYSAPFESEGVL

B1: chimpanzee antibody 5H2 (antibody, V domains shown)
VH: EVQLLESGPGLVKPSETLSLTCTVSGGSISDFYWSWLRQSPGKGLEWIGYAHSRVSAYYNPSLKSRVTISVDTSKNQISLRLSAVTAADTALYYCARQGTGTTGVSEDSFDLWGQGTKVIVSL
VL: ELQMTQSPSSLSASVGDRVTITCRASQDISIRLNWYQQKPGKAPKLLIYDASTLESGVPSRFSGSGSGTDFTLTISSLQPEDFATYYCQQFNSYPLTFGGGTKVEIK
notes: also called mAb 5H2
binding result: binds
